Results on 15 sequences are retold here after publication PMC3460626.

The target of the data set is T1, LasR (Pseudomonas aeruginosa PA14?) (UniProt A0A0H2Z901).
T1 sequence: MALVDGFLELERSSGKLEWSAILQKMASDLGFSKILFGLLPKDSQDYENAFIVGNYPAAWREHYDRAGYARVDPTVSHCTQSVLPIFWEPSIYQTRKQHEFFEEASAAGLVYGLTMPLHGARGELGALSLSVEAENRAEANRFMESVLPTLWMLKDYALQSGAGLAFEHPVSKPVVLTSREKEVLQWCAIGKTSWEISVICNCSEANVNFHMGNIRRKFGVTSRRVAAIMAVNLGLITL
As to the kind of experiment: EMSA. The following applies: LasR EMSA: 20 mM Tris-HCl pH 7.5, 50 mM KCl, 1 mM EDTA, 1 mM DTT, 100 ug/ml BSA, 10% glycerol, room temp 20 min, 1 pM each specific and nonspecific probe.
In the case of “GTCCGGATCCAGTCGCACGGCGACTGCGCCGCCCCCATGGGCGCGGCGAGTCTCTCATCGGACTGAAGGGAGATTATTGGCGAGAGGACTGCGGCGGATAACCTGGCAGAACTGAACGTATCGTTGAATGGAATTCAACGATACCCAAGCCGGGCGGGAATCGCCCGGGCGAGGCCGCGTTCCCGGTGGCCCGCTCCTCGCCGCTAAGCTTGGAC (double strand) [PA14_33890 promoter]”, the binding result is reported as “binds more weakly”.

Turning to “GTCCGGATCCGTCCGAACCCATGAGATGGCAAACCAATGACAACCCACTTTGCTCGGCAAATCGCCTCCCAGATCTCACAGTTCGAGGCGCTCGGCCTGGGCTCCACGGGGGCGACGGCATGCCTGGAAGCGAGCGGCCATCCATCGGGCCGATAGCGCTCCACCCCGTCTCGCCTGCCAGAATTCGGAC (double strand) [lrs1 promoter]”, the binding entry is recorded as “binds”.

On to “GTCCGAATTCGCAATGGCAGACCTTGCCGTTCAGCGACAGGCAGATCGACGCCGACCCGCAACTGCAACGGCTAAGCATTCGCGAATGATAAGCAATGCCTATCAGATCTGATGGGAAAAAAACTGACGGTTTTTCCGCGCTCGTTCGTCTTTAACCATAGAGGCGGCCCACAGCCGCCCGGTTCCAGGGAACACGTGCAGGATCCGGAC (double strand) [PA14_33830 promoter]”, for which the binding entry is “binds”.

Regarding “GTCCGAATTCGGCGGCCCTTTGCCTGCCTCTACCGGCTCACAGTGCGGGTGCCGACCGCTTTGCATTCCGCGACATCCATCAGGAGTGGGTAGCGAATCTGACCGGCCCGTCACATTTGGTAGGGACCTCAAACCGGCACCGAGGGCTAGGATCAGCCCGCTTCGAAATGAATCCGGTTCTGGAAAGGATCCGGAC (double strand) [PA14_53250 (cbpD) promoter]”, the binding entry is “binds”.

For the sequence “GTCCGGATCCCGAGGCTCTCCAGAGGAATCCACTGTTGTCTGCCTTATTTTTTATAAATTGTTAACTACCTGTTTTGGTAGGGTTTTCCAAATGGCCATCAATGTCGTTATGATGGCTATAGCCAAGCCGTAAAGGGCATGGACGCAGACGCCTGACGTTTGGCTGAAAATCTTTCATTGGAATTCGGAC (double strand) [lrs2 promoter]”, the binding result is “binds”.

As to “GTCCGAATTCGTGGAGGATCGCGTCGCGCAGCTGGCGATAGAGCTGGCCGACCAGGTCGTGGCGGCCGTCGAGGATCAGTTGCAGTTCCATGGCGAAATTGGCTACCTGGTATTTCTGGTAATTGGCTCTTCGTGGAAGCCAAAGGCAGGCTTAGTGTTACCCCATGCCGCGCCGCTTTCCACTCTCGCGGCTGCCAATCAGCCGGATCCGGAC (double strand) [PA14_03490 promoter]”, the binding entry was “binds”.

As to “GTCCGAATTCCCGGGAAGCGCCCTGTGACGGACTTCGAATCCTTGCGTCGCGCTCCGTCCTCCGGATTGAGCGGCGCGCTGCGGCGGCCGCGCTCCGGCGCAGCGCCACTGCCAGATCTGGCAGTTGTCGCTGGCGGGGACGGAGGTTTTAGTAGCCGCACTTTTTTCCAGGGCCGGGCAGTGGATCCGGAC (double strand) [PA14_40310 promoter]”, the binding result is recorded as “binds”.

As to “GTCCGAATTCCTTCTGATGCCGGCGCGGGCGCCCGGCCGGTATGGCCGGCAAGCCCGTCGACGGCTGTCCAGCTACCAGATCCGGTAGCCCTGCCAGATTTCGCAGGCGACCAGATCTGGCAGGTTGTTGGGCTCCCGGTGCCATGCAACCTATTACGCCTCTCGCCCCCCACCCGTTCGCGCAGGATCCGGAC (double strand) [PA14_37745 promoter]”, the binding result is “binds”.

“GTCCGAATTCTGGATCGTTTCGTCACAGGAAACGCTGGAGCGCCTATTCCAGAGCGCTTCGAACAATCGGTAAAAATAAAATCCAAATAATCAGACGCAGTTCAAAAACAACCAGAACAGATAGTTTTTCCGCCTTTCCCAACATGCTCCTCTCGCCTTGACTCGTTCGATGCAGCGGATCGCCCATGCGTATGTCCGGCATTGGATCCGGAC (double strand) [PA14_07430 promoter]”: the binding entry is given as “binds”.

With “GTCCGGATCCGTTGAAGAGTGAAGCCTTTGGGGGAAGGGCCGCCGCGGCGGAATCCAATCCTTCATGTTGCCAGCTTTGGCAGAGGGATGGGGCCGGCGGCGGTTCGCCTTCCTATGTCAGTTTGTCGCAGCGGGCCGGCCCGCCGCGGTTCAGGACCTGTCGCTGGCGGCGATCTTCGCGAATTCGGAC (double strand) [PA14_23220 promoter]”, the binding result was “no binding”.

With “GTCCGAATTCGCGGCTGAATCCGGCTGGGCAGCTGGCGATCATATCGCCAGCCACCCTGCTGGCCCCCGGCGCAGAGCGGCGCGGCTATGCTCGTGCGCCCGGAACGGCCCTATCCGTTCTGGGAGCTACCCCCTCGCCACCCTCGACTAGCATGACCAGGGAGGCCCGCAGTGGACGCCCAGGGCTAGGAGCCGCAGGCGGATCCGGAC (double strand) [PA14_41500 promoter]”, the binding result was “binds”.

As to “GTCCGGATCCGTCTACCGCAGGGCATTCCGGCGTTTGTCGCGATCAGGGCGGGGGCATGGTTGCAGAGACGGCGGAAGGCTTCACCTACCACAATTGGCAGAGTCGCGGCGGCGATGCTCCGCGCCGGGTTCAACCGGCTTCGCTGAGTTCGGCGACCACCACTCCGGGAAGGTCTTTCAGCAGTGCCGGGGACAGCAGGAATTCGGAC (double strand) [PA14_34870 promoter]”, the binding result is “binds”.

“GTCCGGATCCTTCCGTGAAGTGTTTCAAATAGCCAGCATCCCTGGTCGCTGATGTGGATTGCATAAAACACAGAACGCTCGTACCGGCTCAACTACAAGATCTGGTAGGTGCCAGACAGGGTATGCGGGATTGCTAAGCTGATGCTTCCTGCAATGCCGGAGGTTGTAGCCAAGTTGTAATTTTATTCTTTCGGTACGCAGGAAAGAATTCGGAC (double strand) [PA14_09480 (phzA1) promoter]”: the binding result is reported as “binds”.

For the sequence “GTCCGAATTCTTGTTCTATATGTTCGAACTTGGCTTTGCTCGTTGTTTTAATTTTGCGGAATAACCTCTGGAACTATTCATATGAATTTTTGAAAGTTTGGTTTACCTGAGAGATTTATGAGTTGACCTTGTCACGATGGCAGGACTCATGGTTCGCAGGAGTCAACAAACCAGGATCCGGAC (double strand) [PA14_18800 promoter]”, the binding entry is on record as “binds”.

With “GTCCGAATTCCCGTGCTACCCCCGGCAGGCGTAGCCGCGGCAGCCTGCCTCGGCAAAAAGCCATCAGCCGGCGCGCTTCGACGCCCCTCATACCGCCCTTTCGCCAACTACCAATTCTCATAGTTGTGAGGGGAAATTTGTATCTTATTTTAAATACCCACGAAACATATAAAAACACACACAGCGAAACACTTCGGAAACCGGATCCGGAC (double strand) [PA14_48530 promoter]”, the binding result was “binds”.
